Reference: patent US20230212305A1 (published 2023)

How the values were obtained:
[1] = target: T1, cynomolgus ABCG2 (Macaca fascicularis) (UniProt Q5MB13 1-654); assay: FACS binding to 293T cells
T1 chain: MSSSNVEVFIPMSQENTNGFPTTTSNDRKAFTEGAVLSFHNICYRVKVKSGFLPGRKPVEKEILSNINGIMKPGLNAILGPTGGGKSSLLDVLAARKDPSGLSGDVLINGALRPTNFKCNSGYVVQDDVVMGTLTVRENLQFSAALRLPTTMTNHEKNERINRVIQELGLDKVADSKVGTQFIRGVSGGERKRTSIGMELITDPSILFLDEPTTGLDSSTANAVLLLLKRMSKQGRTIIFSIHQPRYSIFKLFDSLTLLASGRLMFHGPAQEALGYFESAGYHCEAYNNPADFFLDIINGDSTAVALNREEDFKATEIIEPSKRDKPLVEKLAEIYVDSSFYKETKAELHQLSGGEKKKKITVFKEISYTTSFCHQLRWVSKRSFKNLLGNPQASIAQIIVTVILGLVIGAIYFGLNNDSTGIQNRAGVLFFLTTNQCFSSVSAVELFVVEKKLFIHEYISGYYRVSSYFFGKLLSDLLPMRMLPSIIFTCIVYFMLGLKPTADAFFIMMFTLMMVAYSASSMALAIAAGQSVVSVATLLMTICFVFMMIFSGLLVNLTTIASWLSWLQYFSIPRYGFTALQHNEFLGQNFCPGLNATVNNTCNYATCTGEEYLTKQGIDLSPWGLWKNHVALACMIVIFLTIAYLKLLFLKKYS

human ABCG2 [2] = target: T2, human ABCG2 (UniProt Q9UNQ0 1-655); assay: FACS binding to 293T cells
T2 chain: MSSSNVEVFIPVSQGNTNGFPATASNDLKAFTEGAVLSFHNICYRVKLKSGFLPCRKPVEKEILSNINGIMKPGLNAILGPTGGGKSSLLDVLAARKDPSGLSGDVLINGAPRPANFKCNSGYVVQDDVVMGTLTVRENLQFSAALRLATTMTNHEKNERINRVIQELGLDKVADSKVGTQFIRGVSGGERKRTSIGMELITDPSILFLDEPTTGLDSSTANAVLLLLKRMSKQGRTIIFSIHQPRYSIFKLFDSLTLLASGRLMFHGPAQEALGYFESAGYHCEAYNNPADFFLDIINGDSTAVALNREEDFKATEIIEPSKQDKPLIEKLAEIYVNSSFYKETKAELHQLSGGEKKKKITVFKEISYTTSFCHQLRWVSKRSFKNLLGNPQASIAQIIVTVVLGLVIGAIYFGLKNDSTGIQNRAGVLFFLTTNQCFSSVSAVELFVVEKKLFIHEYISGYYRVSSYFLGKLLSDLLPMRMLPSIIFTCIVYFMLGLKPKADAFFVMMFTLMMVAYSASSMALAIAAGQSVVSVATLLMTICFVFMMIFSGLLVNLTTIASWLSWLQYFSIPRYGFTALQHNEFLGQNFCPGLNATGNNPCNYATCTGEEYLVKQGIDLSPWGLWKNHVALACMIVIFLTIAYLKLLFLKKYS

[3] = target: T1, cynomolgus ABCG2 (Macaca fascicularis); assay: cell binding
human ABCG2 [4] = target: T2, human ABCG2; assay: cell binding
human ABCG2 [5] = target: T2, human ABCG2; assay: FACS cell binding (MFI)
[6] = target: T1, cynomolgus ABCG2 (Macaca fascicularis); assay: FACS binding to 293T cells
human ABCG2 [7] = target: T2, human ABCG2; assay: FACS binding to 293T cells
human ABCG2 [8] = target: T2, human ABCG2; assay: FACS binding to 293T.hG2 cells
[9] = target: T1, cynomolgus ABCG2 (Macaca fascicularis); assay: FACS binding to 293T.cG2 cells
[10] = target: T1, cynomolgus ABCG2 (Macaca fascicularis); assay: FACS binding to 293T cells
human ABCG2 [11] = target: T2, human ABCG2; assay: FACS binding to 293T cells
G2_639 = assay: FACS binding to 293T cells
G2_418 = assay: FACS binding to 293T cells
G2_377 = assay: FACS binding to 293T cells
G2_709 = assay: FACS binding to 293T cells
G2_336 = assay: FACS binding to 293T cells
G2_656 = assay: FACS binding to 293T cells
human ABCG2 [12] = target: T2, human ABCG2; assay: FACS cell binding
[13] = target: T1, cynomolgus ABCG2 (Macaca fascicularis); assay: FACS binding to 293T cells
human ABCG2 [14] = target: T2, human ABCG2; assay: FACS binding to 293T cells

B1: anti-ABCG2 antibody 5D3 (antibody, V domains shown)
VH: QVQLQESGPGLVKPSQSLSLTCTVTGFSITSDYAWNWIRQFPGKKLEWMGYINFDGGTTYNPSLRGRISITRDTSKNQFFLQLRSVTPEDTATYYCATFYGAKGTLDYWGQGTSVTVSS
VL: DIVLTQSPSSFSVSLGDRVTISCKASGYILNRLAWYQQKPGNAPRLLISGATSLETGFPSRFSGTGSGKDYTLSISSLQTEDVGTYYCQQYWSTPWTFGGGTKLEIK
Kd [1]: 99.2 nM | Kd (human ABCG2 [2]): 37.7 nM | EC50 [3]: 131 nM | EC50 (human ABCG2 [4]): 4.9 nM | EC50 (human ABCG2 [5]): 8.5 nM | Kd [6]: 253 nM | Kd (human ABCG2 [7]): 15.7 nM | Kd (human ABCG2 [8]): 37.7 nM | Kd [9]: 99.2 nM

B2: G2.636 rat (antibody, V domains shown)
VH: EVKLVESGGGLVQPGRSLKLSCAASGFTFSRFYMAWVRQAPTKGLEWVAHISHGGDTTYYRDSVKGRFTISRDNAKSTLFLQMDSLRSEDTATYYCTTSAAPWNYVMDGWGLGASVTVSS
VL: DIVMTQSPSLLSASVGDRVTLTCKGSQNINNFLAWYQQKLGEAPKLLIYKTNSLHTGIPSRFSGSGSGTDYTLTISSLHSEDLATYYCYQYNNGYTFGAGTKLELK
EC50 [3]: 341 nM | EC50 (human ABCG2 [4]): 80 nM | Kd [10]: 62.5 nM | Kd (human ABCG2 [11]): 10.9 nM

B3: cG2 (other)
chain: MSSSNVEVFIPMSQENTNGFPTTTSNDRKAFTEGAVLSFHNICYRVKVKSGFLPGRKPVEKEILSNINGIMKPGLNAILGPTGGGKSSLLDVLAARKDPSGLSGDVLINGALRPTNFKCNSGYVVQDDVVMGTLTVRENLQFSAALRLPTTMTNHEKNERINRVIQELGLDKVADSKVGTQFIRGVSGGERKRTSIGMELITDPSILFLDEPTTGLDSSTANAVLLLLKRMSKQGRTIIFSIHQPRYSIFKLFDSLTLLASGRLMFHGPAQEALGYFESAGYHCEAYNNPADFFLDIINGDSTAVALNREEDFKATEIIEPSKRDKPLVEKLAEIYVDSSFYKETKAELHQLSGGEKKKKITVFKEISYTTSFCHQLRWVSKRSFKNLLGNPQASIAQIIVTVILGLVIGAIYFGLNNDSTGIQNRAGVLFFLTTNQCFSSVSAVELFVVEKKLFIHEYISGYYRVSSYFFGKLLSDLLPMRMLPSIIFTCIVYFMLGLKPTADAFFIMMFTLMMVAYSASSMALAIAAGQSVVSVATLLMTICFVFMMIFSGLLVNLTTIASWLSWLQYFSIPRYGFTALQHNEFLGQNFCPGLNATVNNTCNYATCTGEEYLTKQGIDLSPWGLWKNHVALACMIVIFLTIAYLKLLFLKKYS
Kd (G2_639): 14.3 nM | Kd (G2_418): 38.8 nM | Kd (G2_377): 31.4 nM | Kd (G2_709): 41.4 nM | Kd (G2_336): 410 nM | Kd (G2_656): 272 nM

B4: G2.173 Humanized 3 (antibody, V domains shown)
VH: EVQLVQSGAEVKKPGASVKVSCKASGFNIKDDYVHWVRQAPGQGLEWIGRIDPASGNTRYAPKFRGRATMTADTSISTAYMELSRLRSDDTAVYYCSPPLWVGGFAYWGQGTLVTVSS
VL: DVVMTQSPLSLPVTLGQPASISCRSSQSLVHSDVNTYLHWYQQRPGQSPRLLIYKVSNRFSGVPDRFSGSGSGTDFTLKISRVEAEDVGVYFCSQTTHVPYTFGGGTKLEIK
Kd (human ABCG2 [12]): 33.5 nM

B5: G2.748 rat (antibody, V domains shown)
VH: QVSLKESGPGMLQPSKTLSLTCSFSGFSLSTSGMVVNWIRQPSGKSLEWLAAIDWDGDKYYNPSLKHRLTVSKDTSNTQVVLKITSVDTADTATYYCARSIAPYRGWFGYWGQGTLVTVSS
VL: EIVLIQSPSSLPASLGERVTIICRASQDIGNNLNWYQQKPDGTIKPLIYFTSNFQSGVPSSFSGSRSGTDFSLTISSLEAEDFAMYYCQQDASLPWTFGGGTKLEIK
Kd [1]: 0.5 nM | Kd (human ABCG2 [2]): 0.5 nM | Kd (human ABCG2 [8]): 0.5 nM | Kd [9]: 0.5 nM

B6: G2_360 (antibody, V domains shown)
VH: QVQLRESGPGLVQPSQTLSLTCTVSGLSLTSNSISWIRQPPGKGLEWMGVIWSTGGTDYNSAIKSRLSISRDTSKSQVFLKMNSLQTEDTAMYFCARAIAASAVMDAWGQGASVTVSS
VL: DIQMTQSPPSLSASLGDKVTITCQASQNIHKYIGWYQQKPGKAPRLLIRYTSTLESGTPSRFSGSGSGRYYSFSISNVESEDIASYYCLQYVNLWTFGGGTKLELK
Kd [13]: 156 nM | Kd (human ABCG2 [14]): 23.7 nM

B7: G2_746 (antibody, V domains shown)
VH: VKLEESGPGLVLPSQTLSLSCTVSGLSLISNSISWIRQPPGKGLEWMGVMWNNGGTDYNSAIKSRLSISRDTSKSQVFLKMNSLQTEDTAMYFCARGYSSYIFDYWGQGASVTVSS
VL: DILMTQSPPSLSASLGDKVTITCQASQNIHGYIAWYQQKPGRLPRLLIRLTSTLESGTPSRFSGSGSGRDYSFSISNVESEDLASYYCLQYVNLWTFGGGTKLELK
Kd [10]: 66.4 nM | Kd (human ABCG2 [11]): 22.3 nM

B8: G2.302 mouse (antibody, V domains shown)
VH: QIQLQQSGPELVRPGASVKISCKASGYTFTDYYINWVKQRPGQGLEWIGWIYPGNVNVKYNEKFKGKATLTVDTSSSTGYMQLRSLTSEDSAVYFCARSIGLRYFDNWGQGTTLTVSS
VL: EKVLTQSPAIMSASLGEKVTMSCRASSSVHYMYWHQQKSDASPRLWIYYTSNLAPGVPARFSGSGSGNFYSLTISSVEDEDGATYYCQQFTTSTWTFGGGTKLEIK
Kd (human ABCG2 [12]): 33.6 nM | EC50 (human ABCG2 [5]): 18.5 nM
